Tested on: CCR10+ EphA3+ cells
Assay: Humanized NSG mouse model of IPF: KB004 / KB243 mAb treatment (hydroxyproline, Masson's trichrome, flow cytometry)
Assay type: in vivo, human IPF cells in NSG mice
Excerpt: Six to eight-week old, female, pathogen free NOD Cg-Prkdc^SCID IL2rg^Tm1wil Szi (NSG) or NOD.Cg-Prkdc^SCID IL2rg^tm1Wil Tg(CAG-EGFP) 10sb/SzJ (NSG-GFP) were purchased from Jackson Laboratories and housed in Cedars-Sinai Medical Center's high isolation animal rooms. NSG mice were allowed a minimum of one week to acclimate in the facility and then these mice either received nothing (i.e., non-humanized) 1×10^6 IPF cells by intravenous injection (i.e. humanized). In most in vivo experiments, the IPF cells used were removed from liquid N2 storage, rapidly thawed, and washed in serum-free medium prior to injection into NSG mice. […] […] Other groups of humanized NSG mice received either vehicle (i.e., solutol) or BIBF1120 (Cayman Chemicals) by oral gavage beginning at day 35 after IPF cell injection. Vehicle or drug was administered 5 days a week until day 63 after IPF cell injection. All NSG groups were monitored daily and mice were sacrificed if there is evidence for morbidity such as weight loss of more than 20%, loss of fur, paralysis and/or lack of responsiveness when handled.
Murine lung cellular suspensions were generated using a mouse lung dissociation kit, C-tubes, and a GentleMacs dissociator (Miltenyi Biotech). Spleens were dissociated using a sterile rubber tip of 1 ml syringe plunger and 100 μm 50 ml tube filters (BD bioscience) as follows: isolated spleens were placed in 1 ml of sterile complete medium until all the samples were collected. Sterile 50 ml conical tube filters were placed on top of sterile 50 ml conical tubes and were equilibrated by pipetting 1 ml of calcium and magnesium free DPBS (DBPS; Cellgro) through the filters. Spleens were transferred to a sterile 50 ml filter, cellular suspensions were generated using a sterile rubber tip of a syringe plunger, and splenic material was flushed with 5 ml of DPBS. Lung and splenic cell suspensions were centrifuged and resuspended in 1 ml of RBC lysis buffer (Biolegend), incubated at room temperature for 1-2 min and then equilibrated by adding 25 ml of DPBS to each tube. Cells were centrifuged and resuspended in flow cytometric wash/staining buffer (DPBS+2% FBS) in the presence of human and mouse Fc receptor blocking antibodies (Biolegend). Cells were then stained with anti-human-CD45, -EpCAM and -CCR10 antibodies for 20 min at 4° C. Unstained, isotype controls, fluorescent minus one controls and staining in non-humanized murine lung and spleen suspensions were utilized to gate out any non-specific antibody binding and background fluorescence. CCR10 antibodies were validated via the enrichment for CCR10 transcripts in magnetically sorted CCR10^+ cells versus non-sorted normal and IPF explant cells (FIG. 35). Flow cytometric data were acquired within one week of staining using a LSR Frotessa (BD Biosciences) or MACSQuant 10 (Miltenyi Biotech) flow cytometers and data were analyzed using Flowjo software V10.2 (Treestar Inc.). The resulting gates from non-humanized NSG-GFP mice were used to identify human CD45-, EPCAM-, CCR10-, and PDGFRα-stained cells (FIGS. 36C & 21F).
Lung tissue was fixed in 10% NBF solution for 24 h and subsequently transferred into tissue cassettes and kept in a 70% ethanol solution for approximately 24 h, Lungs were then processed using routine histology techniques and stained using Masson's trichrome. A Zeiss Axio Observer Z1 microscope and the Zeiss Zen 2012 v 1.1.2.0 software (Zeiss) were used to obtain representative images.
Total lung hydroxyproline was analyzed. […] On the day of the assay, tissues were thawed and […] of distilled water (dH2O) was added to the tissues. Tissues were homogenized using a micro-sample homogenizer (Pro Scientific) as follows: the homogenizing tip was washed in 70% ethanol, then dH2O and then utilized to homogenize the tissues. The homogenizer was washed in dH2O between samples and a new batch of dH2O was utilized after 5 samples. […]

[1] = prophylactic, 5 mg/kg days 0 to 35, day 35, flow cytometry
[2] = treatment beginning at day 7, day 35

B1: KB004: afucosylated anti-EphA3 mAb supplied by Kalobios; targets EphA3+ cells via antibody-dependent cell-mediated cytotoxicity (ADCC) (antibody, chains of the INN, looked up, V domains shown)
VH: QVQLVQSGAEVKKPGASVKVSCKASGYTFTGYWMNWVRQAPGQGLEWMGDIYPGSGNTNYDEKFQGRVTMTRDTSISTAYMELSRLRSDDTAVYYCARGGYYEDFDSWGQGTTVTVSS
VL: DIQMTQSPSFLSASVGDRVTITCRASQGIISYLAWYQQKPEKAPKRLIYAASSLQSGVPSRFSGSGSGTEFTLTISSLQPEDFATYYCGQYANYPYTFGQGTKLEIK
development of lung fibrosis (prophylactic treatment over 35 days): completely prevented
CCR10+ CD45+ cells in lungs, KB004 versus KB243 [1]: significant reduction
CCR10+ Lin- cells in lungs, KB004 versus KB243 [1]: significant reduction
hydroxyproline in the lungs (prophylactic, 5 mg/kg i.p. twice weekly days 0 to 35, day 35): significantly reduced
numbers of CD45+ and Lin- CCR10+ cells and pulmonary fibrosis (therapeutic treatment from days 35 to 63): failed to reduce
histological appearance, KB243 versus KB004 (therapeutic, days 35 to 63): no significant difference
lung hydroxyproline, KB243 versus KB004 (therapeutic, days 35 to 63): no significant difference
CCR10+ cell numbers, KB243 versus KB004 (therapeutic, days 35 to 63, flow cytometry): no significant difference
hydroxyproline in humanized NSG lungs relative to non-humanized mice (therapeutic, starting at day 35, day 63): elevated
histological interstitial consolidation, KB004 compared to KB243 [2]: ameliorated
number of CD45+ CCR10+ cells, KB004 compared to KB243 [2]: significant reduction
lung hydroxyproline, KB004 compared to KB243 (treatment beginning at day 7 after IPF cell injection, day 35): lower

Source: patent publication US11397178B2, “Method of predicting progression of idiopathic pulmonary fibrosis and monitoring of therapeutic efficacy” (Cedars-Sinai Medical Center, priority 2016, dated 2022)
